Test results: patent US20230212319A1, “NOVEL ANTIGEN BINDING DOMAINS AND SYNTHETIC ANTIGEN RECEPTORS INCORPORATING THE SAME” (University of Southern California, priority 2020, published 2023)

System: RAJI cells
Assay: JNG assay, co-culture with RAJI cells
Format: cell-based
Settings: JNG cells expressing construct, co-culture with Raji
Method in brief: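 Jurkat NFAT-GFP (JNG) cells stably transduced with SARs by lentivirus, with drug selection where the construct carried a resistance gene, then co-cultured with target cells at E:T ~1:2 for ~4–18 h. % GFP-positive cells measured by FACS against parental JNG; +/- to 5+ correspond to ~5–50% GFP-positive.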

Molecule | NFAT-GFP ASSAY: Raji
22230 (protein) MALPVTALLLPLALLLHAARPDIQMTQSPSSLSASVGDRVTITCKASDHINNWLAWYQQKPGQAPKLLIYGATTLETGVPSRFSGSGSGTDYTLTISSLQPEDFATYYCQQSWNTPWTFGQGTKLEIKRLEDLKNVFPPEVAVFEPSEAEISHTQKATLVCLATGFYPDHVELSWWVNGKEVHSGVCTDPQPLKEQPALNDSRYCLSSRLRVSATFWQNPRNHFRCQVQFYGLSENDEWTQDRAKPVTQIVSAEAWGRADCGFTSESYQQGVLSATILYEILLGKATLYAVLVSALVLMAMVKRKDSRGRAKRSGSGATNFSLLKQAGDVEENPGPTSATMDWIWRILFLVGAATGAHSGPQDKLTQWPKWLEGGGGSELPTQGTFSNVSTNVSGGGGQDKLTQWPKWLEGGGGSELPTQGTFSNVSTNVSGSGGGGSGGGGSGGGGSFEQVQLQQPGAELVKPGASVKMSCKASGYAFSSYWINWMKQKPGQGLEWIGQIYPGDGDTNYNGKFKGRATLTADTSSSTAYMQLSSLTSEDSAVYFCARSITTVVGCAMDYWGQGTSVTVSSTRIQNPDPAVYQLRDSKSSDKSVCLFTDFDSQTNVSQSKDSDVYITDKCVLDMRSMDFKSNSAVAWSNKSDFACANAFNNSIIPEDTFFPSPESSCDVKLVEKSFETDTNLNFQNLSVIGFRILLLKVAGFNLLMTLRLWSSRAKRSGSGVKQTLNFDLLKLAGDVESNPGPSRGHMTEYKPTVRLATRDDVPRAVRTLAAAFADYPATRHTVDPDRHIERVTELQELFLTRVGLDIGKVWVADDGAAVAVWTTPESVEAGAVFAEIGPRMAELSGSRLAAQQQMEGLLAPHRPKEPAWFLATVGVSPDHQGKGLGSAVVLPGVEAAERAGVPAFLETSAPRNLPFYERLGFTVTADVEVPEGPRTWCMTRKPGA | 4+ (refer to approximately 5%, 10%, 20%, 30%, 40% and 50% GFP positive cells)
22236 (protein) MALPVTALLLPLALLLHAARPDIQMTQSPSSLSASVGDRVTITCKASDHINNWLAWYQQKPGQAPKLLIYGATTLETGVPSRFSGSGSGTDYTLTISSLQPEDFATYYCQQSWNTPWTFGQGTKLEIKRLEDLKNVFPPEVAVFEPSEAEISHTQKATLVCLATGFYPDHVELSWWVNGKEVHSGVCTDPQPLKEQPALNDSRYCLSSRLRVSATFWQNPRNHFRCQVQFYGLSENDEWTQDRAKPVTQIVSAEAWGRADCGFTSESYQQGVLSATILYEILLGKATLYAVLVSALVLMAMVKRKDSRGRAKRSGSGATNFSLLKQAGDVEENPGPTSATMDWIWRILFLVGAATGAHSIYPPLLRTSQAMGSGGPGSGSCQFDLSTRRLKCGSGSCQFDLSTRRLKCGSGGGGSGGGGSGGGGSFEQVQLQQPGAELVKPGASVKMSCKASGYAFSSYWINWMKQKPGQGLEWIGQIYPGDGDTNYNGKFKGRATLTADTSSSTAYMQLSSLTSEDSAVYFCARSITTVVGCAMDYWGQGTSVTVSSTRIQNPDPAVYQLRDSKSSDKSVCLFTDFDSQTNVSQSKDSDVYITDKCVLDMRSMDFKSNSAVAWSNKSDFACANAFNNSIIPEDTFFPSPESSCDVKLVEKSFETDTNLNFQNLSVIGFRILLLKVAGFNLLMTLRLWSSRAKRSGSGVKQTLNFDLLKLAGDVESNPGPSRGHMTEYKPTVRLATRDDVPRAVRTLAAAFADYPATRHTVDPDRHIERVTELQELFLTRVGLDIGKVWVADDGAAVAVWTTPESVEAGAVFAEIGPRMAELSGSRLAAQQQMEGLLAPHRPKEPAWFLATVGVSPDHQGKGLGSAVVLPGVEAAERAGVPAFLETSAPRNLPFYERLGFTVTADVEVPEGPRTWCMTRKPGA | Raji (4+) (refer to approximately 5%, 10%, 20%, 30%, 40% and 50% GFP positive cells)
22234 (protein) MALPVTALLLPLALLLHAARPDIQMTQSPSSLSASVGDRVTITCKASDHINNWLAWYQQKPGQAPKLLIYGATTLETGVPSRFSGSGSGTDYTLTISSLQPEDFATYYCQQSWNTPWTFGQGTKLEIKRLEDLKNVFPPEVAVFEPSEAEISHTQKATLVCLATGFYPDHVELSWWVNGKEVHSGVCTDPQPLKEQPALNDSRYCLSSRLRVSATFWQNPRNHFRCQVQFYGLSENDEWTQDRAKPVTQIVSAEAWGRADCGFTSESYQQGVLSATILYEILLGKATLYAVLVSALVLMAMVKRKDSRGRAKRSGSGATNFSLLKQAGDVEENPGPTSATMDWIWRILFLVGAATGAHSQLGPYELWELSHGSGSGSGSQLGPYELWELSHSGGGSGQLGPYELWELSHGSSGPGSGSCQFDLSTRRLKCGSGSCQFDLSTRRLKCGSGGGGSGGGGSGGGGSFEQVQLQQPGAELVKPGASVKMSCKASGYAFSSYWINWMKQKPGQGLEWIGQIYPGDGDTNYNGKFKGRATLTADTSSSTAYMQLSSLTSEDSAVYFCARSITTVVGCAMDYWGQGTSVTVSSTRIQNPDPAVYQLRDSKSSDKSVCLFTDFDSQTNVSQSKDSDVYITDKCVLDMRSMDFKSNSAVAWSNKSDFACANAFNNSIIPEDTFFPSPESSCDVKLVEKSFETDTNLNFQNLSVIGFRILLLKVAGFNLLMTLRLWSSRAKRSGSGVKQTLNFDLLKLAGDVESNPGPSRGHMTEYKPTVRLATRDDVPRAVRTLAAAFADYPATRHTVDPDRHIERVTELQELFLTRVGLDIGKVWVADDGAAVAVWTTPESVEAGAVFAEIGPRMAELSGSRLAAQQQMEGLLAPHRPKEPAWFLATVGVSPDHQGKGLGSAVVLPGVEAAERAGVPAFLETSAPRNLPFYERLGFTVTADVEVPEGPRTWCMTRKPGA | Raji (+/-) (refer to approximately 5%, 10%, 20%, 30%, 40% and 50% GFP positive cells)
22237 (protein) MALPVTALLLPLALLLHAARPDIQMTQSPSSLSASVGDRVTITCKASDHINNWLAWYQQKPGQAPKLLIYGATTLETGVPSRFSGSGSGTDYTLTISSLQPEDFATYYCQQSWNTPWTFGQGTKLEIKRLEDLKNVFPPEVAVFEPSEAEISHTQKATLVCLATGFYPDHVELSWWVNGKEVHSGVCTDPQPLKEQPALNDSRYCLSSRLRVSATFWQNPRNHFRCQVQFYGLSENDEWTQDRAKPVTQIVSAEAWGRADCGFTSESYQQGVLSATILYEILLGKATLYAVLVSALVLMAMVKRKDSRGRAKRSGSGATNFSLLKQAGDVEENPGPTSATMDWIWRILFLVGAATGAHSGCPKWDAARCSGGGSGPGSGSCQFDLSTRRLKCGSGSCQFDLSTRRLKCGSGGGGSGGGGSGGGGSFEQVQLQQPGAELVKPGASVKMSCKASGYAFSSYWINWMKQKPGQGLEWIGQIYPGDGDTNYNGKFKGRATLTADTSSSTAYMQLSSLTSEDSAVYFCARSITTVVGCAMDYWGQGTSVTVSSTRIQNPDPAVYQLRDSKSSDKSVCLFTDFDSQTNVSQSKDSDVYITDKCVLDMRSMDFKSNSAVAWSNKSDFACANAFNNSIIPEDTFFPSPESSCDVKLVEKSFETDTNLNFQNLSVIGFRILLLKVAGFNLLMTLRLWSSRAKRSGSGVKQTLNFDLLKLAGDVESNPGPSRGHMTEYKPTVRLATRDDVPRAVRTLAAAFADYPATRHTVDPDRHIERVTELQELFLTRVGLDIGKVWVADDGAAVAVWTTPESVEAGAVFAEIGPRMAELSGSRLAAQQQMEGLLAPHRPKEPAWFLATVGVSPDHQGKGLGSAVVLPGVEAAERAGVPAFLETSAPRNLPFYERLGFTVTADVEVPEGPRTWCMTRKPGA | Raji (5+) (refer to approximately 5%, 10%, 20%, 30%, 40% and 50% GFP positive cells)
22228 (protein) MALPVTALLLPLALLLHAARPDIQMTQSPSSLSASVGDRVTITCKASDHINNWLAWYQQKPGQAPKLLIYGATTLETGVPSRFSGSGSGTDYTLTISSLQPEDFATYYCQQSWNTPWTFGQGTKLEIKRLEDLKNVFPPEVAVFEPSEAEISHTQKATLVCLATGFYPDHVELSWWVNGKEVHSGVCTDPQPLKEQPALNDSRYCLSSRLRVSATFWQNPRNHFRCQVQFYGLSENDEWTQDRAKPVTQIVSAEAWGRADCGFTSESYQQGVLSATILYEILLGKATLYAVLVSALVLMAMVKRKDSRGRAKRSGSGATNFSLLKQAGDVEENPGPTSATMDWIWRILFLVGAATGAHSGPQDKLTQWPKWLEGSGGGGSGGGGSGGGGSFEQVQLQQPGAELVKPGASVKMSCKASGYAFSSYWINWMKQKPGQGLEWIGQIYPGDGDTNYNGKFKGRATLTADTSSSTAYMQLSSLTSEDSAVYFCARSITTVVGCAMDYWGQGTSVTVSSTRIQNPDPAVYQLRDSKSSDKSVCLFTDFDSQTNVSQSKDSDVYITDKCVLDMRSMDFKSNSAVAWSNKSDFACANAFNNSIIPEDTFFPSPESSCDVKLVEKSFETDTNLNFQNLSVIGFRILLLKVAGFNLLMTLRLWSSRAKRSGSGVKQTLNFDLLKLAGDVESNPGPSRGHMTEYKPTVRLATRDDVPRAVRTLAAAFADYPATRHTVDPDRHIERVTELQELFLTRVGLDIGKVWVADDGAAVAVWTTPESVEAGAVFAEIGPRMAELSGSRLAAQQQMEGLLAPHRPKEPAWFLATVGVSPDHQGKGLGSAVVLPGVEAAERAGVPAFLETSAPRNLPFYERLGFTVTADVEVPEGPRTWCMTRKPGA | Raji (2+) (refer to approximately 5%, 10%, 20%, 30%, 40% and 50% GFP positive cells)
22227 (protein) MALPVTALLLPLALLLHAARPDIQMTQSPSSLSASVGDRVTITCKASDHINNWLAWYQQKPGQAPKLLIYGATTLETGVPSRFSGSGSGTDYTLTISSLQPEDFATYYCQQSWNTPWTFGQGTKLEIKRLEDLKNVFPPEVAVFEPSEAEISHTQKATLVCLATGFYPDHVELSWWVNGKEVHSGVCTDPQPLKEQPALNDSRYCLSSRLRVSATFWQNPRNHFRCQVQFYGLSENDEWTQDRAKPVTQIVSAEAWGRADCGFTSESYQQGVLSATILYEILLGKATLYAVLVSALVLMAMVKRKDSRGRAKRSGSGATNFSLLKQAGDVEENPGPTSATMDWIWRILFLVGAATGAHSGPQLGPYELWELSHGSALRRLLGLFGFEQVQLQQPGAELVKPGASVKMSCKASGYAFSSYWINWMKQKPGQGLEWIGQIYPGDGDTNYNGKFKGRATLTADTSSSTAYMQLSSLTSEDSAVYFCARSITTVVGCAMDYWGQGTSVTVSSTRIQNPDPAVYQLRDSKSSDKSVCLFTDFDSQTNVSQSKDSDVYITDKCVLDMRSMDFKSNSAVAWSNKSDFACANAFNNSIIPEDTFFPSPESSCDVKLVEKSFETDTNLNFQNLSVIGFRILLLKVAGFNLLMTLRLWSSRAKRSGSGVKQTLNFDLLKLAGDVESNPGPSRGHMTEYKPTVRLATRDDVPRAVRTLAAAFADYPATRHTVDPDRHIERVTELQELFLTRVGLDIGKVWVADDGAAVAVWTTPESVEAGAVFAEIGPRMAELSGSRLAAQQQMEGLLAPHRPKEPAWFLATVGVSPDHQGKGLGSAVVLPGVEAAERAGVPAFLETSAPRNLPFYERLGFTVTADVEVPEGPRTWCMTRKPGA | Raji (4+) (refer to approximately 5%, 10%, 20%, 30%, 40% and 50% GFP positive cells)
